Source: PMC6939996 (Nature, 2019)

T1: BBP/Mud2 dimer (S. cerevisiae, UniProt Q12186 1-476; P36084 1-527)
T1 sequence (looked up) 1: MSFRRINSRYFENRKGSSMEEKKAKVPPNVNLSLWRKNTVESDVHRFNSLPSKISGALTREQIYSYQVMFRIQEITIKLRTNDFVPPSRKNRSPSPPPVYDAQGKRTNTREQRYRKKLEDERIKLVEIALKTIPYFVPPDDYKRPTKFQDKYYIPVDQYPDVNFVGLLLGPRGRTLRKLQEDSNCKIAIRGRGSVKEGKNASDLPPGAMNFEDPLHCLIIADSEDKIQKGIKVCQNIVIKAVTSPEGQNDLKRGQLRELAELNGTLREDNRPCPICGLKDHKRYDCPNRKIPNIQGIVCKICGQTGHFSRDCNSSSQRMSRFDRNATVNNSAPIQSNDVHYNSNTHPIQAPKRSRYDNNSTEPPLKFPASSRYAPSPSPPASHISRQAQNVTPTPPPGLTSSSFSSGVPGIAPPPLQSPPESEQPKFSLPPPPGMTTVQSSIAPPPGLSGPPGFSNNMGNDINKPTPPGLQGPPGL
T1 sequence (looked up) 2: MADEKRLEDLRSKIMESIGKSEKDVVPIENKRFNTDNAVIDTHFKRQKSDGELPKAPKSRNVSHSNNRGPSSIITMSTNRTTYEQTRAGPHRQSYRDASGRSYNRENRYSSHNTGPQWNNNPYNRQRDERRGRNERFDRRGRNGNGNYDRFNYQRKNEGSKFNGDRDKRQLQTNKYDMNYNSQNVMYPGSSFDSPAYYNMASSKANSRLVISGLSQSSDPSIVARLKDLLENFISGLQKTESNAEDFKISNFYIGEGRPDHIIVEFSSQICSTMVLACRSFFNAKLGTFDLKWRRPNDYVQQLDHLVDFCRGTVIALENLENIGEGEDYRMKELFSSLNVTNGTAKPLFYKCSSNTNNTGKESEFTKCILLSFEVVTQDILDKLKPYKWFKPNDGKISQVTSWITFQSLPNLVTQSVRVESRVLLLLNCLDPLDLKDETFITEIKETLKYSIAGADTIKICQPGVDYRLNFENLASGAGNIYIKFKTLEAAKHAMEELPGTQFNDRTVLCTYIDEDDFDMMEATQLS

B1: Snu56 (in the purified U1 snRNP of the Ubc4 E complex) (natural protein, S. cerevisiae)
chain: MRPRRRGLAYHHTKPKGQLSQGHYPTTSNDGQRRKVGNSEAFQSFDIWKNLDRIRSTKKNAGQFIKGSLLILPMRTEDKQQFDECMDELHKYISKDILRCYPQKEQKDEGMLFYIVLKDFNILDSCFVLSVLLAFQKRLWMAPSEKSYFRVPKNINLTGSFYLPKNIETGRGHIITSYRREQPSSSIVEVGFNVVPDFQQFQVKACHVSKFMNELSNFFSQVEFGKCEANVINYFKREYNRTYSQISLALYELPLIGDGLFDIKSYISKTRPIIETSKAQMIKHISEMKAYNEISGLQGDQFPRQQRPLSNSPSSNSISSSQTIEAGATSYQTQPQRHAVNKPSNVLNSSNRHSGPKTFEDGRYSEGNKPGFMTQDEIKQHCIGTIKASMDAVKKKSSYQILKTYVRCPRQNYIDIVYQNLNDLRSKTNCNIVVLNLNNLHESQMWLESLNTTNYTIFAQAPHPSTIRVISIGGVGEYIVKALELILNILEH
B2: U1-70K (in the purified U1 snRNP of the Ubc4 E complex) (natural protein, S. cerevisiae)
chain: MNYNLSKYPDDVSRLFKPRPPLSYKRPTDYPYAKRQTNPNITGVANLLSTSLKHYMEEFPEGSPNNHLQRYEDIKLSKIKNAQLLDRRLQNWNPNVDPHIKDTDPYRTIFIGRLPYDLDEIELQKYFVKFGEIEKIRIVKDKITQKSKGYAFIVFKDPISSKMAFKEIGVHRGIQIKDRICIVDIERGRTVKYFKPRRLGGGLGGRGYSNRDSRLPGRFASASTSNPAERNYAPRLPRRETSSSAYSADRYGSSTLDARYRGNRPLLSAATPTAAVTSVYKSRNSRTRESQPAPKEAPDY
B3: Luc7 (in the purified U1 snRNP of the Ubc4 E complex) (natural protein, S. cerevisiae)
chain: MSTMSTPAAEQRKLVEQLMGRDFSFRHNRYSHQKRDLGLHDPKICKSYLVGECPYDLFQGTKQSLGKCPQMHLTKHKIQYEREVKQGKTFPEFEREYLAILSRFVNECNGQISVALQNLKHTAEERMKIQQVTEELDVLDVRIGLMGQEIDSLIRADEVSMGMLQSVKLQELISKRKEVAKRVRNITENVGQSAQQKLQVCEVCGAYLSRLDTDRRLADHFLGKIHLGYVKMREDYDRLMKNNRTTNASKTATTLPGRRFV
B4: Prp40 (in the purified U1 snRNP of the Ubc4 E complex) (natural protein)
chain: MSIWKEAKDASGRIYYYNTLTKKSTWEKPKELISQEELLLRENGWKAAKTADGKVYYYNPTTRETSWTIPAFEKKVEPIAEQKHDTVSHAQVNGNRIALTAGEKQEPGRTINEEESQYANNSKLLNVRRRTKEEAEKEFITMLKENQVDSTWSFSRIISELGTRDPRYWMVDDDPLWKKEMFEKYLSNRSADQLLKEHNETSKFKEAFQKMLQNNSHIKYYTRWPTAKRLIADEPIYKHSVVNEKTKRQTFQDYIDTLIDTQKESKKKLKTQALKELREYLNGIITTSSSETFITWQQLLNHYVFDKSKRYMANRHFKVLTHEDVLNEYLKIVNTIENDLQNKLNELRLRNYTRDRIARDNFKSLLREVPIKIKANTRWSDIYPHIKSDPRFLHMLGRNGSSCLDLFLDFVDEQRMYIFAQRSIAQQTLIDQNFEWNDADSDEITKQNIEKVLENDRKFDKVDKEDISLIVDGLIKQRNEKIQQKLQNERRILEQKKHYFWLLLQRTYTKTGKPKPSTWDLASKELGESLEYKALGDEDNIRRQIFEDFKPESSAPTAESATANLTLTASKKRHLTPAVELDY
B5: Snu71 (in the purified U1 snRNP of the Ubc4 E complex) (natural protein, S. cerevisiae, UniProt P53207 1-620, looked up)
chain: MRDIVFVSPQLYLSSQEGWKSDSAKSGFIPILKNDLQRFQDSLKHIVDARNSLSETLLNSNDDGSIHNSDQNTGLNKDKEASIADNNSANKCATSSSRYQELKQFLPISLDQQIHTVSLQGVSSSFSRGQIESLLDHCLNLALTETQSNSALKVEAWSSFSSFLDTQDIFIRFSKVDEDEAFVNTLNYCKALFAFIRKLHEDFKIELHLDLNTKEYVEDRTGTIPSVKPEKASEFYSVFKNIEDQTDERNSKKEQLDDSSTQYKVDTNTLSDLPSDALDQLCKDIIEFRTKVVSIEKEKKMKSTYEESRRQRHQMQKVFDQIRKNHSGAKGSANTEEEDTNMEDEDEEDDTEDDLALEKRKEERDLEESNRRYEDMLHQLHSNTEPKIKSIRADIMSAENYEEHLEKNRSLYLKELLHLANDVHYDHHRSFKEQEERRDEEDRAKNGNAKELAPIQLSDGKAISAGKAAAITLPEGTVKSENYNADKNVSESSEHVKIKFDFKKAIDHSVESSSEDEGYRESELPPTKPSERSAAEDRLPFTADELNIRLTNLKESRYVDELVREFLGVYEDELVEYILENIRVNQSKQALLNELRETFDEDGETIADRLWSRKEFRLGT

Assays:
Assay in all cases: cross-linking
[1] = molecular target: T1, BBP/Mud2 dimer
[2] = molecular target: B4
[3] = molecular target: B5

binding result [1]	binding result [2]	binding result [3]	Binder
binds	–	–	B1
–	binds	–	B2
binds	binds	–	B3
binds	–	binds	B4
binds	–	–	B5
